Measurements: patent US20210386875

Biological target: T1, [^125I]LS370
T1 chain: XYXDEVDGKGC

B1: Caspase-3 (Cal Biochem) (protein)
chain: SGISLDNSYKMDYPEMGLCIIINNKNFHKSTGMTSRSGTDVDAANLRETFRNLKYEVRNKNDLTREEIVELMRDVSKEDHSKRSSFVCVLLSHGEEGIIFGTNGPVDLKKITNFFRGDRCRSLTGKPKLFIIQACRGTELDCGIETDSGVDDDMACHKIPVEADFLYAYSTAPGYYSWRNSKDGSWFIQSLCAMLKQYADKLEFMHILTRVNRKVATEFESFSFDATFHAKKQIPCIVSMLTKELYFYH
hydrolysis by caspase-3 (radiochromatogram): [^125I]LS370 eluted at 19.5 min, and in the presence of caspase-3, the cleaved fragments eluted at 12.5 and 13 min
kcat (kinetic analysis of hydrolysis, radio-HPLC): 1.02 s⁻¹
